The target of assay [1] is HIV-1 Env of strain CAP210.2.00.E8 (HIV-1). The assay is described as follows: cell-based or functional assay.
Assay [2] concerns the target HIV-1 Env of strain Du172.17 (HIV-1). The assay is described as follows: cell-based or functional assay.
Assay [3] concerns the target HIV-1 Env of strain SC422661.8 (HIV-1). In words: cell-based or functional assay.
The target of assay [4] is HIV-1 Env of strain CAP45.2.00.G3 (HIV-1). The assay is described as follows: cell-based or functional assay.
Assay [5] addresses HIV-1 Env of strain TRO.11 (HIV-1). In words: cell-based or functional assay.
The target of assay [6] is HIV-1 Env of strain AC10.0.29 (HIV-1). In words: cell-based or functional assay.
In assay [7] the target is CAP244.2.00.D3 gp120 core (HIV-1).
The target in assay [8] is Q259.d2.17 gp120 core (HIV-1).
Assay [9] addresses 93TH057 gp120 core (HIV-1).
Assay [10] concerns the target Env of HIV-1 strain CAP45.2.00.G3 (HIV-1). In words: cell-based or functional assay.
Assay [11] deals with Env of HIV-1 strain AC10.0.29 (HIV-1). In words: cell-based or functional assay.
Assay [12] addresses the viral strains including SC422661.8, TRO0.11, CAP45.2.00G3, CAP210.2.00E8, Du172.17, and AC10.0.29. The assay is described as follows: cell-based or functional assay.
In assay [13] the target is Env of HIV-1 strain TRO.11 (HIV-1). The assay is described as follows: cell-based or functional assay.
Assay [14] concerns the target Env of HIV-1 strain SC422661.8 (HIV-1). In words: cell-based or functional assay.
For assay [15], the target named is Env of HIV-1 strain CAP210.2.00.E8 (HIV-1). The assay is described as follows: cell-based or functional assay.
Assay [16] deals with Env of HIV-1 strain Du172.17 (HIV-1). The assay is described as follows: cell-based or functional assay.
Assay [17] concerns the target HIV-1 strain SC422661.8 envelope (gp120) (HIV-1). In words: cell-based or functional assay.
The target of assay [18] is HIV-1 strain Du172.17 envelope (gp120) (HIV-1). The assay is described as follows: cell-based or functional assay.
The target of assay [19] is HIV-1 strain CAP210.2.00.E8 envelope (gp120) (HIV-1). In words: cell-based or functional assay.
Assay [20] has as its target HIV-1 strain TRO.11 envelope (gp120) (HIV-1). In words: cell-based or functional assay.
Assay [21] has as its target HIV-1 strain AC10.0.29 envelope (gp120) (HIV-1). In words: cell-based or functional assay.
The target of assay [22] is HIV-1 strain CAP45.2.00.G3 envelope (gp120) (HIV-1). The assay is described as follows: cell-based or functional assay.

Substitutions are numbered along the chain they refer to. Names may count otherwise.

B1: NIH45-46 G54I IgG (antibody, name in Kabat numbering, V domains shown)
VH: QVRLSQSGGQMKKPGESMRLSCRASGYEFLNCPINWIRLAPGRRPEWMGWLKPRIGAVNYARKFQGRVTMTRDVYSDTAFLELRSLTSDDTAVYFCTRGKYCTARDYYNWDFEHWGRGAPVTVSS
VL: EIVLTQSPATLSLSPGETAIISCRTSQSGSLAWYQQRPGQAPRLVIYSGSTRAAGIPDRFSGSRWGADYNLSISNLESGDFGVYYCQQYEFFGQGTKVQVDI
Turning to B1, the neutralization IC50 is > 50 µg/mL in assay [1]; > 50 µg/mL in assay [2]; 0.1 µg/mL in [3]; > 50 µg/mL in assay [4]; 10 µg/mL in [5]; 8.6 µg/mL in [6].

B2: NIH45-46 G54L IgG (antibody, name in Kabat numbering, V domains shown)
VH: B1 VH with I55L
VL: B1 VL
Turning to B2, the neutralization IC50 in assay [1] was > 50 µg/mL; in assay [2] it was > 50 µg/mL; in [3] it was 0.1 µg/mL; in assay [4] it was > 50 µg/mL; in assay [5], 0.3 µg/mL; in assay [6], 1.7 µg/mL.

B3: NIH45-46^G54W Fab (C-terminal 6x-His tagged heavy chain, SPR) (Fab, V domains shown)
VH: B1 VH with I55W
VL: B1 VL
B3: in assay [7], the Kd amounted to 37 nM and the kon amounted to 22000 M⁻¹ s⁻¹. In assay [8], this molecule came in with a Kd of 48 nM, a koff of 0.0017 s⁻¹ and an association rate constant (kon) of 34000 M⁻¹ s⁻¹. Further, in assay [9], the Kd was determined as 63 nM, the koff is 0.0016 s⁻¹ and the kon was 26000 M⁻¹ s⁻¹.

B4: NIH45-46 G54M IgG (antibody, name in Kabat numbering, V domains shown)
VH: B1 VH with I55M
VL: B1 VL
Regarding B4, the neutralization IC50 is > 50 µg/mL in [1]; > 50 µg/mL in assay [2]; 0.06 µg/mL in assay [3]; > 50 µg/mL in assay [4]; 0.3 µg/mL in assay [5]; 1.5 µg/mL in assay [6].

B5: NIH45-46 G54H IgG (antibody, name in Kabat numbering, V domains shown)
VH: B1 VH with I55H
VL: B1 VL
For the molecule B5, the neutralization IC50 in assay [1] is > 50 µg/mL; in assay [2], > 50 µg/mL; in [3] it was 0.09 µg/mL; in assay [4] it was > 50 µg/mL; in assay [5], 0.2 µg/mL; in assay [6], 0.6 µg/mL.

B6: 3BNC60 (antibody, V domains shown)
VH: QVHLSQSGAAVTKPGASVRVSCEASGYKISDHFIHWWRQAPGQGLQWVGWINPKTGQPNNPRQFQGRVSLTRQASWDFDTYSFYMDLKAVRSDDTAIYFCARQRSDFWDFDVWGSGTQVTVSS
VL: DIQMTQSPSSLSARVGDTVTITCQANGYLNWYQQRRGKAPKLLIYDGSKLERGVPARFSGRRWGQEYNLTINNLQPEDVATYFCQVYEFIVPGTRLDLKRTVA
Turning to B6, the IC50 in [10] is 43.2 µg/mL; in [11], > 50 µg/mL; in assay [13], 0.018 µg/mL; in assay [14], 0.042 µg/mL; in [15] it was 10.6 µg/mL; in assay [16], 1.4 µg/mL. The molecule also had an IC50 (averaged across the strains) in assay [12] of 0.3 µg/mL.

B7: 3BNC55 T54W IgG (antibody, name in Kabat numbering, V domains shown)
VH: QVQLVQSGTAVKRPGASVRVSCQASGYTFTDYFIYWWRQAPGQGLEWLGWINPLWSQPSYPSRFQGRLTLTRDTFDEMLYMDLRGLRSDDTGIYFCARRHSDYCDFDIWGSGTQIIVSS
VL: DIQMTQSPSSLSASVGDKVTITCQTSAGYLNWYQQRRGRAPKLLMYDGSRLVTGVPSRFSGRRWGTQYNLTIGSLQPEDIATYYCQVYEFFGPGTRLDLKS
With B7, the neutralization IC50 in assay [17] is 0.6 µg/mL; in [18], > 50 µg/mL; in [19], > 50 µg/mL; in [20], > 50 µg/mL; in assay [21] it was > 50 µg/mL; in assay [22], > 50 µg/mL.

B8: 12A12^Y54W IgG (antibody, name in Kabat numbering, V domains shown)
VH: SQHLVQSGTQVKKPGASVRISCQASGYSFTDYVLHWWRQAPGQGLEWMGWIKPVWGARNYARRFQGRINFDRDIYREIAFMDLSGLRSDDTALYFCARDGSGDDTSWHLDPWGQGTLVIVSA
VL: DIQMTQSPSSLSASVGDRVTITCQAGQGIGSSLQWYQQKPGKAPKLLVHGASNLHRGVPSRFSGSGFHTTFSLTISGLQRDDFATYFCAVLEFFGPGTKVEIKR
B8: the neutralization IC50 in assay [17] was 0.2 µg/mL; in [18], 0.1 µg/mL; in assay [19] it was > 50 µg/mL; in assay [20], 0.2 µg/mL; in assay [21] it was 0.5 µg/mL; in assay [22], 0.2 µg/mL.

By Kd is commonly meant the free concentration of one partner at which half of the binding sites on the other are occupied at equilibrium, for simple one-to-one binding. Read a low Kd as higher affinity. As usually defined, the kon is the rate constant with which the complex forms. High values mean faster complex formation, low ones slower complex formation. One may read the koff as the rate constant with which the complex falls apart. For orientation: IC50 means the point on the concentration scale where inhibition reaches its midpoint. Read a low IC50 as inhibition by little substance.
